Data on one molecule can be found in PMC10699790.

The target in the assay is HA-Halo-mGluR3 (rat), P31422. Put plainly: single-molecule pulldown. To be noted: remark: other sources report otherwise.

B1: HA-Halo-mGluR3, P31422 23-879 (receptor)
chain: LGDHNFMRREIKIEGDLVLGGLFPINEKGTGTEECGRINEDRGIQRLEAMLFAIDEINKDNYLLPGVKLGVHILDTCSRDTYALEQSLEFVRASLTKVDEAEYMCPDGSYAIQENIPLLIAGVIGGSYSSVSIQVANLLRLFQIPQISYASTSAKLSDKSRYDYFARTVPPDFYQAKAMAEILRFFNWTYVSTVASEGDYGETGIEAFEQEARLRNICIATAEKVGRSNIRKSYDSVIRELLQKPNARVVVLFMRSDDSRELIAAANRVNASFTWVASDGWGAQESIVKGSEHVAYGAITLELASHPVRQFDRYFQSLNPYNNHRNPWFRDFWEQKFQCSLQNKRNHRQVCDKHLAIDSSNYEQESKIMFVVNAVYAMAHALHKMQRTLCPNTTKLCDAMKILDGKKLYKEYLLKINFTAPFNPNKGADSIVKFDTFGDGMGRYNVFNLQQTGGKYSYLKVGHWAETLSLDVDSIHWSRNSVPTSQCSDPCAPNEMKNMQPGDVCCWICIPCEPYEYLVDEFTCMDCGPGQWPTADLSGCYNLPEDYIKWEDAWAIGPVTIACLGFLCTCIVITVFIKHNNTPLVKASGRELCYILLFGVSLSYCMTFFFIAKPSPVICALRRLGLGTSFAICYSALLTKTNCIARIFDGVKNGAQRPKFISPSSQVFICLGLILVQIVMVSVWLILETPGTRRYTLPEKRETVILKCNVKDSSMLISLTYDVVLVILCTVYAFKTRKCPENFNEAKFIGFTMYTTCIIWLAFLPIFYVTSSDYRVQTTTMCISVSLSGFVVLGCLFAPKVHIVLFQPQKNVVTHRLHLNRFSVSGTATTYSQSSASTYVPTVCNGREVLDSTTSSL
modifications: here or on the partner: Halo tag labeled with CA-SS-Alexa-488; Halo tag labeled with CA-SS-Alexa-488
For orientation: stoichiometry N means the number of molecules, sites or subunits per partner or assembly. Regarding B1, the stoichiometry N came out at 2.
